Each block holds one molecule with its values, some of them ahead of it.
Experiments:
[1] = target: SUMO-GCN4 fusion protein (Aeropyrum pernix | not stated); test: cross-linking
[2] = target: SUMO-GCN4 fusion protein (Aeropyrum pernix | not stated); test: SEC
[3] = target: SUMO CTD fusion with the native C247 residue (Aeropyrum pernix); test: cross-linking
[4] = target: KvAPΔCTD+Lys (Aeropyrum pernix); test: cross-linking
[5] = target: KvAP-C247S (Aeropyrum pernix); test: cross-linking
SEC = target: the molecule itself; test: SEC
[6] = target: KvAP-C247S (Aeropyrum pernix); test: cross-linking; remark: listed apart in the source

stoichiometry N [1]: 4 | stoichiometry N [2]: 4
Molecule: SUMO-GCN4 fusion protein

stoichiometry N [3]: 2
Molecule: SUMO CTD fusion with the native C247 residue (domain or fragment)

percent cross-linked (tetramer) [4]: 100% | percent tetramer at 2 hours [4]: 4% | stoichiometry N [4]: 4 | tetramer yield relative to the full length protein [4]: 0.5
Molecule: KvAPΔCTD+Lys (domain or fragment)

stoichiometry N [5]: 4
Molecule: KvAP-C247S (natural protein)

Molecule: LVGEPEPSSSPAKLAEMVSSMSEEEFEEFVRTLKNLRRLENSMK (domain or fragment, Aeropyrum pernix) [SUMO-CTD fusion protein]
stoichiometry N (SEC): 2

percent decrease in the KvAP tetramer yield [6]: 60%
B1: S6-CTD peptide (peptide)
peptide: CVTATTVGYGDVVPATPIGKVIGIAVMLTGISALTLLIGTVSNMFQKILVGEPEPSSSPAKLAEMVSSMSEEEFEEFVRTLKNLRRLENSMKGS
